Data: patent US20030211076A1, “Compositions and methods for treatment of proliferative disorders” (priority 2003, published 2003)

Legend:
lysyl oxidase (LO) = molecular target: T1, lysyl oxidase (LO) (Bos taurus, UniProt P33072); assay: LO-dependent H2O2 release, horseradish peroxidase-coupled fluorescence assay (substrate potential for LO); assay type: biochemical
T1 construct: per mature LO molecule (32 kD); from tissue
T1 sequence (P33072 170-418): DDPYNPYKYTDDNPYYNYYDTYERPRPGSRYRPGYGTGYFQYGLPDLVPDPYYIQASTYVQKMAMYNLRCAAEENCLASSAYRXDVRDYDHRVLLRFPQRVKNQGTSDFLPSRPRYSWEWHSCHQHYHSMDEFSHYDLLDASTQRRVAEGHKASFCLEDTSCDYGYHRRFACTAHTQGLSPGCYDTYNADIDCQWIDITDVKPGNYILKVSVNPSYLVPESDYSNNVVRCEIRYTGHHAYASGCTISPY
Protocol: The oxidation of a primary amine substrate by LO yields stoichiometric amounts of the corresponding aldehyde, hydrogen peroxide and ammonia, as shown: RCH2NH2+O2+H2O→RCHO+H2O2+NH3 (Kagan, 1986). To assess the substrate potential of FGF2, LO-dependent H2O2 release was monitored in assays using FGF2 as the sole substrate, using both the optimum temperature for LO activity of 55° C. and the physiological temperature of 37° C. (Trackman et al., 1981).
LO reaction with FGF2 as a substrate was assessed by a horseradish peroxidase-coupled fluorescence assay for H2O2 production. Reaction mixtures contained 0.25 mg of sodium homovanillate(HVA), 40 μg of HRP, and FGF2 at doses as indicated below in 0.05 M sodium borate buffer, pH 8.2, in a final volume of 2 ml. Assays were initiated by the addition of LO to reaction mixtures. H2O2 release was continuously monitored at excitation and emission wavelengths of 315 and 425 nm, respectively, at a constant temperature of 55° C. or 37° C., as specified, in the thermostatted cuvette chamber of an SLM Aminco Bowman Series 2 Luminescence Spectrometer. All activity data were corrected for background rates of H2O2 release determined in complete assay mixtures supplemented with 200 μM BAPN, an irreversible inhibitor of LO. In FIG. 4, solid curves represent the time course of H2O2 release at 55° C. in the reaction of 0.16 μM LO with 0.23 (a), 0.45 (b) and 0.9 (c) μM FGF2, respectively. Dotted curve (d) represents the time course of H2O2 release in the reaction of 0.16 μM LO with 0.9 μM FGF2 at 37° C. The same data were obtained from three separate experiments.
Using the fluorometric assay (Trackman et al., 1981) to monitor LO-dependent H2O2 release in vitro, the substrate potential of other growth factors was also assessed. Major members of the FGF family tested included FGF 1, 4, 5, 6, 7 and EGF (note: All factors are human recombinant forms purchased from R & D Systems, Inc., Minneapolis, Minn.).
A human recombinant disulfide-linked dimer of VEGF165 (MW: 42 kDa)(R & D Systems) as a sole substrate was tested by using the standard in vitro LO catalysis assays as described above for FIG. 4 (Trackman et al., 1981). Curves represent the time course of H2O2 release at 55° C. (a) or 37° C. (b) in the reaction of 0.10 μM LO with 0.45 μM VEGF165. All activity data were corrected for background rates of H2O2 release determined in complete assay mixtures supplemented with the same amounts of LO preincubated with 100 μM BAPN for 15 min at 37° C. The same data were obtained from three separate experiments.
The standard in vitro LO catalysis assays as described above for FIG. 4 (Trackman et al., 1981) using human recombinant PDGF-AB (R & D Systems) as a sole substrate was tested. […] In FIG. 19, curves represent the time course of H2O2 release at 55° C. (a) and 37° C. (b) in the reaction of 0.11 μM LO with 0.46 μM PDGF-AB, respectively. All activity data were corrected for background rates of H2O2 release determined in complete assay mixtures supplemented with the same amounts of LO preincubated with 100 μM BAPN for 15 minutes at 37° C. The same data were obtained from three separate experiments.
To analyze the substrate potential of Tat, the standard in vitro LO catalysis assays as described in FIG. 4 (Trackman et al., 1981) was performed at the optimum temperature of 55° C. and at the physiological temperature of 37° C. A recombinant Tat with 9 lysines in a total of 86 amino acids was used as a sole substrate. FIG. 12A represents a dose and temperature-dependent response. Curves represent the time course of H2O2 release at 55° C. (solid) or 37° C. (dotted) in the reaction of 0.10 μM LO with 0.22 (a and d), 0.43 (b and e) and 0.85 (c and f) μM Tat, respectively. All activity data were corrected for background rates of H2O2 release determined in complete assay mixtures supplemented with the same amounts of LO preincubated with 100 μM BAPN for 15 min at 37° C. […]

[1] = system: porcine pulmonary arterial vascular endothelial cells (VEC); assay: Growth of Tat-stimulated vascular endothelial cells (cell counting, phase-contrast microscopy); assay type: cell-based; details: 3 days, 5% FBS/M199
Protocol: Stimulation of cell proliferation of porcine pulmonary arterial vascular endothelial cells (VEC) was tested with LO-oxidized Tat. VEC (2×10^4) were plated and incubated overnight in 35 mm-dishes containing 2 ml 15% FBS/M199 medium, and then refed with 5% FBS/M199 with different treatment regimens as shown in A, B and C of FIG. 13. FIG. 13A represents a dose response of Tat-stimulated cell growth. Media were supplemented with Tat at the indicated doses and cells were incubated for additional 3 days. Cultures were refed once during the incubation period with fresh media supplemented with Tat at indicated doses. Cells were harvested by trypsinization and counted with a hemacytometer. FIG. 13B represents the LO inhibition of Tat-stimulated cell growth. FIG. 13C represents the effects of inactivation of LO by BAPN on Tat-stimulated cell growth. LO: 3 or 10 nM, Tat: 10 ng ml^−1, BAPN: 100 μM. Data represent the means (±sd) of three separate experiments each assessed with triplicate dishes.
Numerical and morphological alterations in Tat-stimulated VEC cells treated with LO were observed under phase-contrast microscopy (25'). Cells were cultured as described in FIG. 13 and treated with additives as indicated below. The following represents FIG. 14 phase contrast microscopy: A, control; B, 10 ng ml^−1Tat; C, 10 ng ml^−1 Tat+3 nM LO; D, 10 ng ml^−1 Tat+3 nM LO that was preincubated with 100 μM BAPN for 15 min at 370; E, 100 μM BAPN, alone, and F, 3 nM LO, alone.

VEC on Matrigel = assay: Angiogenic response of Tat-stimulated VEC on Matrigel; assay type: cell-based; details: 10 ng/ml Tat, 1 h preincubation and 3 h Tat exposure
Protocol: VEC grown on Matrigel, a solid gel of basement membrane proteins, rapidly align and form capillary-like structures providing a convenient in vitro model for angiogenesis studies (Albini et al., 1995; Grant et al.). Tat has been reported to enhance this in vitro morphogenesis of VEC consistent with its angiogenic property (Albini et al., 1995).
Cells (3×10^5) were plated on Matrigel-coated dishes. After 1 h incubation, various reagents were added to each culture. […] The following represents FIG. 15 phase-contrast microscopy: A, control; B, 10 ng ml^−1 Tat; C, 10 ng ml^−1 Tat+10 nM LO; D, 10 ng ml^−1 Tat+10 nM LO that was preincubated with 100 μM BAPN for 15 min at 370; E, 100 μM BAPN, alone, and F, 10 nM LO, alone.

Substance: Tat: recombinant HIV-1 Tat with 9 lysines in a total of 86 amino acids
- maximum release of H2O2 per mole of Tat (lysyl oxidase (LO); 37° C., 0.1 μM LO, 0.22 μM Tat): 4.85 moles of H2O2 per mole of Tat
- maximum release of H2O2 per mole of Tat (lysyl oxidase (LO); 37° C., 0.1 μM LO, 0.43 μM Tat): 4.75 moles of H2O2 per mole of Tat
- maximum release of H2O2 per mole of Tat (lysyl oxidase (LO); 37° C., 0.1 μM LO, 0.85 μM Tat): 4.80 moles of H2O2 per mole of Tat
- H2O2 released per mole of Tat, time course (lysyl oxidase (LO); 37° C., 0.1 μM LO, 20 min): 4.05±0.05 moles of H2O2 released per mole of Tat
- H2O2 released per mole of Tat, time course (lysyl oxidase (LO); 37° C., 0.1 μM LO, 30 min): 4.80±0.04 moles of H2O2 released per mole of Tat
- maximum release of H2O2 per mole of Tat, average (lysyl oxidase (LO); 37° C., 0.1 μM LO, average over 0.22, 0.43 and 0.85 μM Tat): 4.80±0.05 moles of H2O2 per mole of Tat
- molar ratio of H2O2 released per mole of Tat at the plateau (lysyl oxidase (LO); 55° C., 0.1 μM LO, 0.22 μM Tat): 8.42
- molar ratio of H2O2 released per mole of Tat at the plateau (lysyl oxidase (LO); 55° C., 0.1 μM LO, 0.43 μM Tat): 8.88
- molar ratio of H2O2 released per mole of Tat at the plateau (lysyl oxidase (LO); 55° C., 0.1 μM LO, 0.85 μM Tat): 9.31
- molar ratio of H2O2 released per mole of Tat, mean±standard deviation (lysyl oxidase (LO); 55° C., 0.1 μM LO, mean over 0.22, 0.43 and 0.85 μM Tat): 8.87±0.45
- substrate of LO (in words) (lysyl oxidase (LO); factor as sole substrate, LO-dependent H2O2 release in vitro): excellent substrate of LO
- dose of maximum stimulation of cell proliferation [1]: 10 ng/mL
- formation of capillary like structures (VEC on Matrigel): facilitated the formation of capillary like structures
